Measured values from patent US20200109188A1 (AstraZeneca / MedImmune, published 2020).
Positions count from the first letter of the chain named.

B1: Antibody 10 (antibody, V domains shown)
VH: QVQLQQSGPGLVKPSQTLSLTCAISGDSVSSNSATWNWIRQSPSRGLEWLGRTYYRSKWYNDYADFLKRRITINPDTSNNEVSLRLTSVTPDDTALYYCARGGHITVFGVNIDAFDVWGQGTMVTVSS
VL: DIQMTQSPSSLSASVGDRITISCRTSQSLRSYLHWYQQKPGKAPKLLIYASSTLQSGVPSRFSGSGSGTDFTLTISNLQPEDFATYYCQLSRTFGQGTKVEIK
B2: Antibody 5 (antibody, V domains shown)
VH: QVQLQQSGPGLVKPSQTLSLTCAISGDRVSSNSAVWNWIRQSPSRGLEWLGRTYYRSKWYYDYAESVKSRIVIDPDTSKNQVSLQLNSVTPEDSAIYYCARGGHITVFGLNIDAYDIWGQGAMVTVSS
VL: DIQMTQSPSSLSASVGDRVTISCRAQSLSSYLHWYQQKPGQPPKLLIYAATTLQSGVPSRFSGSGSGTDFTLTISTFQAEDVATYYCQQSRTFGQGTKVEIK
B3: Antibody 6 (antibody, V domains shown)
VH: B2 VH with V107E
VL: B2 VL
B4: Antibody 8 (antibody, V domains shown)
VH: QVQLQQSGPGLVKPSQTLSLTCVISGDTVSSNRATWNWMRQSPLRGLEWLGRTYYRSKWYNDYAVSVKSRVVINPDTSKNQVSLQLNTVTPDDSGVYFCARGGHITVFGVNIDAFDIWGLGTKVTVSS
VL: DIQMTQSPSSLSASVGDRVTISCRASQRLNSYLHWYQQTPGQAPKLLIYATSTLQSGVSPRFSGSGSGTDFTLTISSLQPEDVATYYCQLSRTFGHGTKVEIK

What follows are binders tested against HA of A/New Jersey/8/76 (H1N1) virus (influenza A virus) (assay: cell-based or functional assay).
In the case of B1, the “Neutralization IC50, H1-NJ76” value is reported as 0.15 µg/mL.
B2 was tested, and the “Neutralization IC50, H1-NJ76” value was 1.64 µg/mL.
B3 was tested, and the “Neutralization IC50, H1-NJ76” value was 2.6 µg/mL.
B4 was tested, and the “Neutralization IC50, H1-NJ76” value was 2.26 µg/mL.

These binders were tested against HA of ca A/Perth/16/09 (H3N2) virus (influenza A virus) (assay: cell-based or functional assay).
For B1, the “Neutralization IC50, H3-Perth09” value was 2.56 µg/mL.
For B2, the “Neutralization IC50, H3-Perth09” value was 2.22 µg/mL.
In the case of B3, the “Neutralization IC50, H3-Perth09” value is reported as 5.03 µg/mL.
In the case of B4, the “Neutralization IC50, H3-Perth09” value is reported as greater than 50 µg/mL.

What follows are binders tested against HA of ca A/Sydney/5/97 (H3N2) virus (influenza A virus) (assay: cell-based or functional assay).
For B1, the “Neutralization IC50, H3-Syd97” value was 9.29 µg/mL.
For B2, the “Neutralization IC50, H3-Syd97” value was 3.03 µg/mL.
B3 was tested, and the “Neutralization IC50, H3-Syd97” value was 6.54 µg/mL.
B4 was tested, and the “Neutralization IC50, H3-Syd97” value was greater than 50 µg/mL.

What follows are binders tested against HA of ca A/Netherlands/219/03 (H7N7) virus (influenza A virus) (assay: cell-based or functional assay).
B1 was tested, and the “Neutralization IC50, H7-NLD03” value was 3.8 µg/mL.
In the case of B2, the “Neutralization IC50, H7-NLD03” value is reported as 4.14 µg/mL.
In the case of B3, the “Neutralization IC50, H7-NLD03” value is reported as greater than 50 µg/mL.
B4 was tested, and the “Neutralization IC50, H7-NLD03” value was 12.8 µg/mL.

Each binder was assayed against HA of ca A/Texas/36/91 (H1N1) virus (influenza A virus) (assay: cell-based or functional assay).
In the case of B1, the “Neutralization IC50, H1-TX91” value is reported as 0.48 µg/mL.
B2 was tested, and the “Neutralization IC50, H1-TX91” value was 0.76 µg/mL.
B3 was tested, and the “Neutralization IC50, H1-TX91” value was 2.2 µg/mL.
B4 was tested, and the “Neutralization IC50, H1-TX91” value was 0.7 µg/mL.

Each binder was assayed against HA of ca A/Brit. Columbia/CN-6/04 (H7N3-LP) virus (influenza A virus) (assay: cell-based or functional assay).
In the case of B1, the “Neutralization IC50, H7-BC04” value is reported as 3.59 µg/mL.
For B2, the “Neutralization IC50, H7-BC04” value was 5.35 µg/mL.
With B3 the “Neutralization IC50, H7-BC04” value was greater than 50 µg/mL.
For B4, the “Neutralization IC50, H7-BC04” value was 14.7 µg/mL.

Each binder was assayed against HA of H3-LA87 (A/Los Angeles/7/09 (H3N2)) virus (influenza A virus) (assay: cell-based or functional assay).
For B1, the “Neutralization IC50, H3-LA87” value was 4.59 µg/mL.
With B2 the “Neutralization IC50, H3-LA87” value was 3.54 µg/mL.
In the case of B3, the “Neutralization IC50, H3-LA87” value is reported as 12.6 µg/mL.
With B4 the “Neutralization IC50, H3-LA87” value was greater than 50 µg/mL.

The binders below were run against HA of ca A/Beijing/262/95 (H1N1) virus (influenza A virus) (assay: cell-based or functional assay).
In the case of B1, the “Neutralization IC50, H1-BJ95” value is reported as 4.46 µg/mL.
In the case of B2, the “Neutralization IC50, H1-BJ95” value is reported as 5.06 µg/mL.
In the case of B3, the “Neutralization IC50, H1-BJ95” value is reported as 20.9 µg/mL.
B4 was tested, and the “Neutralization IC50, H1-BJ95” value was 10.6 µg/mL.

These binders were tested against HA of A/Wisconsin/67/05 (H3N2) virus (influenza A virus) (assay: cell-based or functional assay).
With B1 the “Neutralization IC50, H3-Wl05” value was 4.46 µg/mL.
With B2 the “Neutralization IC50, H3-Wl05” value was 2.83 µg/mL.
With B3 the “Neutralization IC50, H3-Wl05” value was 6.76 µg/mL.
For B4, the “Neutralization IC50, H3-Wl05” value was greater than 50 µg/mL.

These binders were tested against HA of A/Kawasaki/9/86 (H1N1) virus (influenza A virus) (assay: cell-based or functional assay).
For B1, the “Neutralization IC50, H1-Kaw86” value was 1.62 µg/mL.
In the case of B2, the “Neutralization IC50, H1-Kaw86” value is reported as 1.01 µg/mL.
In the case of B3, the “Neutralization IC50, H1-Kaw86” value is reported as 3.51 µg/mL.
For B4, the “Neutralization IC50, H1-Kaw86” value was 2.11 µg/mL.

What follows are binders tested against HA of ca A/teal/Hong Kong/W312/97 (H6N1) virus (influenza A virus) (assay: cell-based or functional assay).
With B1 the “Neutralization IC50, H6-HK97” value was 1.05 µg/mL.
For B2, the “Neutralization IC50, H6-HK97” value was 2.27 µg/mL.
With B3 the “Neutralization IC50, H6-HK97” value was 3.23 µg/mL.
In the case of B4, the “Neutralization IC50, H6-HK97” value is reported as 2.97 µg/mL.

What follows are binders tested against HA of A/Hong Kong/8/68 (H3N2) virus (influenza A virus) (assay: cell-based or functional assay).
For B1, the “Neutralization IC50, H3-HK68” value was 0.85 µg/mL.
For B2, the “Neutralization IC50, H3-HK68” value was 0.39 µg/mL.
For B3, the “Neutralization IC50, H3-HK68” value was 2.04 µg/mL.
With B4 the “Neutralization IC50, H3-HK68” value was 2.82 µg/mL.

These binders were tested against HA of ca A/New Caledonia/20/99 (H1N1) virus (influenza A virus) (assay: cell-based or functional assay).
With B1 the “Neutralization IC50, H1-Ncal99” value was 1.26 µg/mL.
With B2 the “Neutralization IC50, H1-Ncal99” value was 0.85 µg/mL.
In the case of B3, the “Neutralization IC50, H1-Ncal99” value is reported as 3 µg/mL.
For B4, the “Neutralization IC50, H1-Ncal99” value was 2.06 µg/mL.

What follows are binders tested against HA of A/Wyoming/03/03 (H3N2) virus (influenza A virus) (assay: cell-based or functional assay).
For B1, the “Neutralization IC50, H3-Wy03” value was 1.52 µg/mL.
In the case of B2, the “Neutralization IC50, H3-Wy03” value is reported as 0.77 µg/mL.
For B3, the “Neutralization IC50, H3-Wy03” value was 4.7 µg/mL.
In the case of B4, the “Neutralization IC50, H3-Wy03” value is reported as greater than 50 µg/mL.

These binders were tested against HA of A/Fort Monmouth/1/47 (H1N1) virus (influenza A virus) (assay: cell-based or functional assay).
In the case of B1, the “Neutralization IC50, H1-FM47” value is reported as 1.11 µg/mL.
B2 was tested, and the “Neutralization IC50, H1-FM47” value was 0.86 µg/mL.
In the case of B3, the “Neutralization IC50, H1-FM47” value is reported as 3.04 µg/mL.
B4 was tested, and the “Neutralization IC50, H1-FM47” value was 1.37 µg/mL.

The binders below were run against HA of ca A/chicken/Hong Kong/G9/97 (H9N2) virus (influenza A virus) (assay: cell-based or functional assay).
B1 was tested, and the “Neutralization IC50, H9-HK97” value was 1.76 µg/mL.
With B2 the “Neutralization IC50, H9-HK97” value was 2.43 µg/mL.
For B3, the “Neutralization IC50, H9-HK97” value was 16.5 µg/mL.
In the case of B4, the “Neutralization IC50, H9-HK97” value is reported as 26.4 µg/mL.

The binders below were run against HA of A/Victoria/3/75 (H3N2) virus (influenza A virus, UniProt P03435 17-567) (assay: cell-based or functional assay).
HA of A/Victoria/3/75 (H3N2) virus, sequence (P03435 17-567 limits assumed): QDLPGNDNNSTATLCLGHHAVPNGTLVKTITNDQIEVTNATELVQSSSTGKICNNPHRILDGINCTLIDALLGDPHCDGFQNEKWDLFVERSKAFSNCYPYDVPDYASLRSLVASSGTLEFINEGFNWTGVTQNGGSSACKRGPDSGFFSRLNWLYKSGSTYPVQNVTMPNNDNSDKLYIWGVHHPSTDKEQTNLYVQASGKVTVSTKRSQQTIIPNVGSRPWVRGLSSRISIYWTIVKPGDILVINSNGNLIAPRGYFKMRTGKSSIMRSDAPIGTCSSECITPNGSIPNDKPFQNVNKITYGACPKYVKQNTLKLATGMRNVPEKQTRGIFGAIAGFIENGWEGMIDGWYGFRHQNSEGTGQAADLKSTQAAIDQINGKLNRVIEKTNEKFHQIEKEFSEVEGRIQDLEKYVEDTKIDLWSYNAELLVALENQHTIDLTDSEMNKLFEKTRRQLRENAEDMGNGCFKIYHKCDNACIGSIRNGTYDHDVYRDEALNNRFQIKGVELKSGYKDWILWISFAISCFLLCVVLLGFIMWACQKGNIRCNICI
B1 was tested, and the “Neutralization IC50, H3-Vic75” value was 0.91 µg/mL.
With B2 the “Neutralization IC50, H3-Vic75” value was 0.57 µg/mL.
With B3 the “Neutralization IC50, H3-Vic75” value was 1.09 µg/mL.
B4 was tested, and the “Neutralization IC50, H3-Vic75” value was 3.83 µg/mL.

Each binder was assayed against HA of ca A/swine/Missouri/06 (H2N3) virus (influenza A virus) (assay: cell-based or functional assay).
In the case of B1, the “Neutralization IC50, H2-MO06” value is reported as 1.04 µg/mL.
In the case of B2, the “Neutralization IC50, H2-MO06” value is reported as 2.38 µg/mL.
B3 was tested, and the “Neutralization IC50, H2-MO06” value was 2.9 µg/mL.
B4 was tested, and the “Neutralization IC50, H2-MO06” value was 2.62 µg/mL.

The binders below were run against HA of ca A/Panama/2007/99 (H3N2) virus (influenza A virus) (assay: cell-based or functional assay).
With B1 the “Neutralization IC50, H3-Pa99” value was 18.7 µg/mL.
B2 was tested, and the “Neutralization IC50, H3-Pa99” value was 16.7 µg/mL.
B3 was tested, and the “Neutralization IC50, H3-Pa99” value was 25.8 µg/mL.
B4 was tested, and the “Neutralization IC50, H3-Pa99” value was greater than 50 µg/mL.

Each binder was assayed against HA of ca A/Vietnam/1203/04 (H5N1) virus (influenza A virus) (assay: cell-based or functional assay).
For B1, the “Neutralization IC50, H5-VM04” value was 2.21 µg/mL.
With B2 the “Neutralization IC50, H5-VM04” value was 2.6 µg/mL.
For B3, the “Neutralization IC50, H5-VM04” value was 8.87 µg/mL.
With B4 the “Neutralization IC50, H5-VM04” value was 3.9 µg/mL.

These binders were tested against HA of ca A/Hong Kong/213/03 (H5N1) virus (influenza A virus) (assay: cell-based or functional assay).
For B1, the “Neutralization IC50, H5-HK03” value was 1.6 µg/mL.
In the case of B2, the “Neutralization IC50, H5-HK03” value is reported as 1.18 µg/mL.
For B3, the “Neutralization IC50, H5-HK03” value was 10.4 µg/mL.
B4 was tested, and the “Neutralization IC50, H5-HK03” value was 1.82 µg/mL.
